Data set [1] concerns the target Pyruvate kinase from rabbit (rabbit) (UniProt P11974). In words: native MS.
Data set [2] concerns the molecule itself. In words: native MS.

A word on the stoichiometry N: it is the number of molecules, sites or subunits per partner or assembly. In the case of “Pyruvate kinase from rabbit (from UniProt P11974 1-531) (enzyme)”, in data set [1], the stoichiometry N turned out to be 4.

B1: Cholera toxin B (natural protein)
chain: TPQNITDLCAEYHNTQIYTLNDKIFSYTESLAGKREMAIITFKNGAIFQVEVPGSQHIDSQKKAIERMKDTLRIAYLTEAKVEKLCVWNNKTPHAIAAISMAN
For B1, in data set [2], the “stoichiometry N” value came out at 5.
